Data taken from publication PMC9482650, “Quantitative fragmentomics allow affinity mapping of interactomes” (Nature Communications, 2022).

Assays:
Test in all cases: holdup assay
Parameters in all cases: key: below the threshold = too weak to quantify, mostly under pKd 3.1 to 4
GORASP1, Q9BQQ3 = target: GORASP1, Q9BQQ3
APBA1_2, Q02410 = target: T1, APBA1_2, Q02410
T1 sequence (Q02410 742-832, limits assumed, looked up): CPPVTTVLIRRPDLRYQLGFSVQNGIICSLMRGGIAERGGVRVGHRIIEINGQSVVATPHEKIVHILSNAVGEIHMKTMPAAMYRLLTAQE

DLG4_3, P78352 = target: DLG4_3, P78352
Sequence of DLG4_3, P78352 (P78352 306-403): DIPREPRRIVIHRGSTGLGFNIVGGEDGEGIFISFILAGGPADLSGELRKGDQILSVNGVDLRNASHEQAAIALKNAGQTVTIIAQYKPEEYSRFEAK

NOS1, P29475 = target: NOS1, P29475
Sequence of NOS1, P29475 (P29475 9-101): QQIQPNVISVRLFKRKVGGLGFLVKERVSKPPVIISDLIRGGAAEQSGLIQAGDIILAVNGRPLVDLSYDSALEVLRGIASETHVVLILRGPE

DVL3, Q92997 = target: T2, DVL3, Q92997
T2 sequence (Q92997 244-331, limits assumed, looked up): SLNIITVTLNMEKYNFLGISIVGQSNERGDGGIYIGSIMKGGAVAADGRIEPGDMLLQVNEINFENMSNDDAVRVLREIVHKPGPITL

LIN7C, Q9NUP9 = target: T3, LIN7C, Q9NUP9
T3 sequence (Q9NUP9 88-185, limits assumed, looked up): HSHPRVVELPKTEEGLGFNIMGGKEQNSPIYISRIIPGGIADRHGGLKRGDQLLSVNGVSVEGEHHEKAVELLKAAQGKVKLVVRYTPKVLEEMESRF

FRMPD2_2, Q68DX3 = target: FRMPD2_2, Q68DX3
Sequence of FRMPD2_2, Q68DX3 (Q68DX3 944-1038): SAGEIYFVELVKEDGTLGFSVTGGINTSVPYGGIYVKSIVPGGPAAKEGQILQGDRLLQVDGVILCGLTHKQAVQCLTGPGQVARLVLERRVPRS

LNX1_3, Q8TBB1 = target: LNX1_3, Q8TBB1
Sequence of LNX1_3, Q8TBB1 (Q8TBB1 500-596): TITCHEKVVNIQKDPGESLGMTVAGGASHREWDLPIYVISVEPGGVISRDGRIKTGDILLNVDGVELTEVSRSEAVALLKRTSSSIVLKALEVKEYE

DLG3_3, Q92796 = target: T4, DLG3_3, Q92796
T4 sequence (Q92796 374-475, limits assumed, looked up): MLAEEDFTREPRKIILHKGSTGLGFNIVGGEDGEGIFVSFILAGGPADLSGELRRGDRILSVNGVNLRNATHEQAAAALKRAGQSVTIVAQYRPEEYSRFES

MAGI2_4, Q86UL8 = target: MAGI2_4, Q86UL8
Sequence of MAGI2_4, Q86UL8 (Q86UL8 772-865): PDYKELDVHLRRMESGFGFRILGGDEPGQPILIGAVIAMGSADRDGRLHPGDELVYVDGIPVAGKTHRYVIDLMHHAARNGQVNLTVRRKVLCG

LAP2, Q96RT1 = target: LAP2, Q96RT1
Sequence of LAP2, Q96RT1 (Q96RT1 other isoform, or with tags, fused parts or gaps): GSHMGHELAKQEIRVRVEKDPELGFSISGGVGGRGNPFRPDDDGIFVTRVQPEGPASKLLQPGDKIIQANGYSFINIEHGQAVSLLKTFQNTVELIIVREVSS

MPDZ_5, O75970 = target: T5, MPDZ_5, O75970
T5 sequence (O75970 695-796, limits assumed, looked up): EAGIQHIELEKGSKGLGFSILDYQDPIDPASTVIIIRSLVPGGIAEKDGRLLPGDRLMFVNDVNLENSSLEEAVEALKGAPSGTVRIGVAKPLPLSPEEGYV

SHANK1, Q9Y566 = target: T6, SHANK1, Q9Y566
T6 sequence (Q9Y566 658-767, limits assumed, looked up): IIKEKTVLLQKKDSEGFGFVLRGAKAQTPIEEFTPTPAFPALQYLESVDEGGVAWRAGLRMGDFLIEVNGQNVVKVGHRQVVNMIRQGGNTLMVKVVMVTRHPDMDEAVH

SNTB1, Q13884 = target: T7, SNTB1, Q13884
T7 sequence (Q13884 107-205, limits assumed, looked up): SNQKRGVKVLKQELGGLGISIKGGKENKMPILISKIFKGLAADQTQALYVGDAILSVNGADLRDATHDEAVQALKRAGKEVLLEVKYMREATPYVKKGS

FRMPD2_3, Q68DX3 = target: FRMPD2_3, Q68DX3
Sequence of FRMPD2_3, Q68DX3 (Q68DX3 1073-1166): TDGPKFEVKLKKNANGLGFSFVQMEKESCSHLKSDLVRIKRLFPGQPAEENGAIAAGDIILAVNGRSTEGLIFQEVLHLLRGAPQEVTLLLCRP

PDZD7_3, Q9H5P4 = target: T8, PDZD7_3, Q9H5P4
T8 sequence (Q9H5P4 857-944, limits assumed, looked up): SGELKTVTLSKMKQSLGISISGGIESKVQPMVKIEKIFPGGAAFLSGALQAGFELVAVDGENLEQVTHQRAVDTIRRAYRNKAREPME

CASK, O14936 = target: CASK, O14936
Sequence of CASK, O14936 (O14936 487-570): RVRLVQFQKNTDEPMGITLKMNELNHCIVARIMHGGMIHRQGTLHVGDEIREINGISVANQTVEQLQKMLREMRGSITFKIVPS

FRMPD1, Q5SYB0 = target: T9, FRMPD1, Q5SYB0
T9 sequence (Q5SYB0 52-145, limits assumed, looked up): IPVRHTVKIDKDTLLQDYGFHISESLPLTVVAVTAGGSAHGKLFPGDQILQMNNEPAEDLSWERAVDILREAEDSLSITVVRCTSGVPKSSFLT

MAGI2_6, Q86UL8 = target: MAGI2_6, Q86UL8
Sequence of MAGI2_6, Q86UL8 (Q86UL8 1141-1229): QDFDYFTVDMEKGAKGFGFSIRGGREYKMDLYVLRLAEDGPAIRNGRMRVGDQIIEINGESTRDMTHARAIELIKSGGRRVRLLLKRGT

DLG1_3, Q12959 = target: DLG1_3, Q12959
Sequence of DLG1_3, Q12959 (Q12959 457-571): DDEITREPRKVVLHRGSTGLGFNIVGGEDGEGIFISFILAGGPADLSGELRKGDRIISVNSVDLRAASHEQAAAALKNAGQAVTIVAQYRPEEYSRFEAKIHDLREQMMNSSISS

Inadl_5, Q8NI35 = target: Inadl_5, Q8NI35
Sequence of Inadl_5, Q8NI35 (Q8NI35 673-780): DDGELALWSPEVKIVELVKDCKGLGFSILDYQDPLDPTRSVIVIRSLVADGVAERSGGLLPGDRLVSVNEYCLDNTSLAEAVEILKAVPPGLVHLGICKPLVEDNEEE

APBA2_1, Q99767 = target: T10, APBA2_1, Q99767
T10 sequence (Q99767 563-664, limits assumed, looked up): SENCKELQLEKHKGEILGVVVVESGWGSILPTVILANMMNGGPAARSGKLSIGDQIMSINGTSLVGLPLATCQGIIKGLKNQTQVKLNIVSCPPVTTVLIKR

GRIP1_7, Q9Y3R0 = target: T11, GRIP1_7, Q9Y3R0
T11 sequence (Q9Y3R0 999-1096, limits assumed, looked up): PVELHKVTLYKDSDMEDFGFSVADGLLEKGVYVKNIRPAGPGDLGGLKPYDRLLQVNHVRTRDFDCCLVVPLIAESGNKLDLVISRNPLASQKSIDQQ

Inadl_1, Q8NI35 = target: Inadl_1, Q8NI35
Sequence of Inadl_1, Q8NI35 (Q8NI35 113-229): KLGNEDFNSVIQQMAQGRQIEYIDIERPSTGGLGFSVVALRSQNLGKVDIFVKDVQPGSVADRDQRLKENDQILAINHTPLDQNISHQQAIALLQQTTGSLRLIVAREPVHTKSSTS

SCRIB_2, Q14160 = target: SCRIB_2, Q14160
Sequence of SCRIB_2, Q14160 (Q14160 857-960): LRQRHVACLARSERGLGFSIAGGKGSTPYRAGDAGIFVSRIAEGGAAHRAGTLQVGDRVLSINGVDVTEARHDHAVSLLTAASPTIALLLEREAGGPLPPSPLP

FRMPD2_1, Q68DX3 = target: FRMPD2_1, Q68DX3
Sequence of FRMPD2_1, Q68DX3 (Q68DX3 770-861): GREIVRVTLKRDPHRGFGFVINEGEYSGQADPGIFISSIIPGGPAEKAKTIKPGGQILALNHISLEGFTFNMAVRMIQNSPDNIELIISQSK

GOPC, Q9HD26 = target: GOPC, Q9HD26
[1] = plain residues with an end cap or a label only (N-terminal biotin on a linker: ttds)
[2] = plain residues with an end cap or a label only (N-terminal biotin on a linker: ahx)

Sequence of GORASP1, Q9BQQ3 (Q9BQQ3 1-208): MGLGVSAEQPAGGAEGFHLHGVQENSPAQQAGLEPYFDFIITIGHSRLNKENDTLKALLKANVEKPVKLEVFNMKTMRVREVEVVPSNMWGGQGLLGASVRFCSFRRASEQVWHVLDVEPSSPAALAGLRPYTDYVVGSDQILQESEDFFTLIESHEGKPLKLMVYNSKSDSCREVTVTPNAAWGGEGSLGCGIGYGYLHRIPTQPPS

TEEEVQDTRL [CFTR, P13569]
pKd (GORASP1, Q9BQQ3; [1]): below the threshold | pKd (APBA1_2, Q02410; [1]): below the threshold | pKd (DLG4_3, P78352; [1]): below the threshold | pKd (NOS1, P29475; [1]): 3.53 | pKd (DVL3, Q92997; [1]): below the threshold | pKd (LIN7C, Q9NUP9; [1]): below the threshold | pKd (FRMPD2_2, Q68DX3; [1]): below the threshold | pKd (LNX1_3, Q8TBB1; [1]): below the threshold | pKd (DLG3_3, Q92796; [1]): below the threshold | pKd (MAGI2_4, Q86UL8; [1]): below the threshold | pKd (LAP2, Q96RT1; [1]): below the threshold | pKd (MPDZ_5, O75970; [1]): below the threshold | pKd (SHANK1, Q9Y566; [1]): 5.07 | pKd (SNTB1, Q13884; [1]): 4.2 | pKd (FRMPD2_3, Q68DX3; [1]): below the threshold | pKd (PDZD7_3, Q9H5P4; [1]): 4.23 | pKd (CASK, O14936; [1]): below the threshold | pKd (FRMPD1, Q5SYB0; [1]): below the threshold | pKd (MAGI2_6, Q86UL8; [1]): below the threshold | pKd (DLG1_3, Q12959; [1]): below the threshold | pKd (Inadl_5, Q8NI35; [1]): below the threshold | pKd (APBA2_1, Q99767; [1]): below the threshold | pKd (GRIP1_7, Q9Y3R0; [1]): 3.74 | pKd (Inadl_1, Q8NI35; [1]): below the threshold | pKd (SCRIB_2, Q14160; [1]): below the threshold | pKd (FRMPD2_1, Q68DX3; [1]): below the threshold

CLDTSRETDL [KCNA5, P22460]
pKd (GORASP1, Q9BQQ3; [1]): below the threshold | pKd (APBA1_2, Q02410; [1]): below the threshold | pKd (DLG4_3, P78352; [1]): below the threshold | pKd (NOS1, P29475; [1]): below the threshold | pKd (DVL3, Q92997; [1]): below the threshold | pKd (LIN7C, Q9NUP9; [1]): 3.74 | pKd (FRMPD2_2, Q68DX3; [1]): below the threshold | pKd (LNX1_3, Q8TBB1; [1]): below the threshold | pKd (DLG3_3, Q92796; [1]): below the threshold | pKd (MAGI2_4, Q86UL8; [1]): below the threshold | pKd (LAP2, Q96RT1; [1]): 3.5 | pKd (MPDZ_5, O75970; [1]): below the threshold | pKd (SHANK1, Q9Y566; [1]): 3.5 | pKd (SNTB1, Q13884; [1]): 5.51 | pKd (FRMPD2_3, Q68DX3; [1]): below the threshold | pKd (PDZD7_3, Q9H5P4; [1]): 4.05 | pKd (CASK, O14936; [1]): below the threshold | pKd (FRMPD1, Q5SYB0; [1]): below the threshold | pKd (MAGI2_6, Q86UL8; [1]): 4.95 | pKd (DLG1_3, Q12959; [1]): 3.57 | pKd (Inadl_5, Q8NI35; [1]): below the threshold | pKd (APBA2_1, Q99767; [1]): below the threshold | pKd (GRIP1_7, Q9Y3R0; [1]): below the threshold | pKd (Inadl_1, Q8NI35; [1]): below the threshold | pKd (SCRIB_2, Q14160; [1]): 4.35 | pKd (GOPC, Q9HD26; [1]): below the threshold | pKd (FRMPD2_1, Q68DX3; [1]): below the threshold

LCKSHAFSHV [PDLIM7, Q9NR12;Q9NR12-1]
pKd (GORASP1, Q9BQQ3; [2]): below the threshold | pKd (DLG4_3, P78352; [2]): below the threshold | pKd (DVL3, Q92997; [2]): below the threshold | pKd (LIN7C, Q9NUP9; [2]): below the threshold | pKd (FRMPD2_2, Q68DX3; [2]): below the threshold | pKd (LNX1_3, Q8TBB1; [2]): below the threshold | pKd (DLG3_3, Q92796; [2]): below the threshold | pKd (MAGI2_4, Q86UL8; [2]): below the threshold | pKd (LAP2, Q96RT1; [2]): below the threshold | pKd (MPDZ_5, O75970; [2]): below the threshold | pKd (SHANK1, Q9Y566; [2]): below the threshold | pKd (SNTB1, Q13884; [2]): below the threshold | pKd (FRMPD2_3, Q68DX3; [2]): below the threshold | pKd (PDZD7_3, Q9H5P4; [2]): below the threshold | pKd (CASK, O14936; [2]): below the threshold | pKd (FRMPD1, Q5SYB0; [2]): below the threshold | pKd (DLG1_3, Q12959; [2]): below the threshold | pKd (Inadl_5, Q8NI35; [2]): below the threshold | pKd (APBA2_1, Q99767; [2]): below the threshold | pKd (GRIP1_7, Q9Y3R0; [2]): below the threshold | pKd (Inadl_1, Q8NI35; [2]): below the threshold | pKd (SCRIB_2, Q14160; [2]): below the threshold | pKd (GOPC, Q9HD26; [2]): below the threshold | pKd (FRMPD2_1, Q68DX3; [2]): below the threshold

EDEDEQVSAV [RAPGEF2, Q9Y4G8]
pKd (GORASP1, Q9BQQ3; [2]): below the threshold | pKd (APBA1_2, Q02410; [2]): 3.65 | pKd (DLG4_3, P78352; [2]): below the threshold | pKd (NOS1, P29475; [2]): 3.67 | pKd (DVL3, Q92997; [2]): below the threshold | pKd (LIN7C, Q9NUP9; [2]): below the threshold | pKd (FRMPD2_2, Q68DX3; [2]): 5.03 | pKd (LNX1_3, Q8TBB1; [2]): below the threshold | pKd (DLG3_3, Q92796; [2]): below the threshold | pKd (MAGI2_4, Q86UL8; [2]): below the threshold | pKd (LAP2, Q96RT1; [2]): 3.62 | pKd (MPDZ_5, O75970; [2]): below the threshold | pKd (SHANK1, Q9Y566; [2]): 4.28 | pKd (SNTB1, Q13884; [2]): 3.87 | pKd (FRMPD2_3, Q68DX3; [2]): below the threshold | pKd (PDZD7_3, Q9H5P4; [2]): 3.87 | pKd (CASK, O14936; [2]): below the threshold | pKd (FRMPD1, Q5SYB0; [2]): below the threshold | pKd (MAGI2_6, Q86UL8; [2]): 4.57 | pKd (DLG1_3, Q12959; [2]): below the threshold | pKd (Inadl_5, Q8NI35; [2]): below the threshold | pKd (APBA2_1, Q99767; [2]): below the threshold | pKd (GRIP1_7, Q9Y3R0; [2]): below the threshold | pKd (Inadl_1, Q8NI35; [2]): below the threshold | pKd (SCRIB_2, Q14160; [2]): below the threshold | pKd (GOPC, Q9HD26; [2]): below the threshold | pKd (FRMPD2_1, Q68DX3; [2]): below the threshold
